Legend:
[1] = molecular target: human CD20 (human) (UniProt P11836); experiment: cell-based or functional assay
[2] = molecular target: human CD20 (human) (UniProt P11836); experiment: Scatchard analysis, cold antibody against 125I-2H7.v16 on WIL2-S cells, n=3

Chain of human CD20 (human) (P11836 whole entry): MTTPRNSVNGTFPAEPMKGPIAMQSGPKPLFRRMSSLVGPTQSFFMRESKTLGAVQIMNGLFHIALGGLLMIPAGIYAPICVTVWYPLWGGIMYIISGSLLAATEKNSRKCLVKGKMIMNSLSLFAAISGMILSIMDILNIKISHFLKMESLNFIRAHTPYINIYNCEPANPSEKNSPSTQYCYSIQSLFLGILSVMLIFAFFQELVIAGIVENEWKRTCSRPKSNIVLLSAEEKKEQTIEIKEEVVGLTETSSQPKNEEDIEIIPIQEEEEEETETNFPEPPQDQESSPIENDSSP

ADCC: EC50(variant)/EC50(2H7.v16) [1]: 5.3 | ADCC: EC50(variant)/EC50(RITUXAN®) [1]: 1 | CDC: EC50(variant)/EC50(RITUXAN®) [1]: 1 | Kd [2]: 990 pM
Substance: RITUXAN® (rituximab) (antibody)
